The assay concerns the target T1, human CD38 on cells (human, UniProt P28907 1-300).
T1 construct: also called native CD38; CD38 on LP-1 myeloma cells, CD38-transfected NIH-3T3 cells, blood leukocytes, CD38-transfected DC27.10 cells
Briefly: flow cytometry on human blood, bound VHH detected with FITC anti-c-myc 9E10, MFI of CD3-negative lymphocytes.

Broadly, the EC50 (read off the curve) is the concentration needed to bring the measured effect to its halfway point.

Method: 50 μl samples of human blood were incubated with serially titrated, purified monovalent Nanobodies for 30 min at RT. Cells were washed twice and bound Nbs were detected with FITC-conjugated anti-c-myc (9E10). T cells were stained with APC-conjugated anti-CD3. Erythrocytes were lysed and cells were analyzed by flow cytometry. Gating was performed on lymphocytes and CD3-negative cells.
Next, purified monovalent anti-CD38 VHH were analysed for binding to native CD38 on the cell surface of peripheral blood leukocytes (PBMCs) by flow cytometry. […] After washing the cells and lysis of erythrocytes by lysis buffer, binding was examined by flow cytometry. […] As positive control, a FITC-labelled monoclonal antibody against CD38 (anti-human CD38-FITC, IA10, BD Biosciences) was used. The lymphocytes were defined on forward and side scattered light. Using the Flowio software the mean fluorescence intensity (MFI) of the CD3-negative cell population was calculated.

B1: MU725 (VHH)
VHH: DVQLQESGGGLVQAGGSLRLSCAASGFTFDDYVIGWFRQAPGKEREGVSSISNNNSTYYADSVKGRFTIASDNAKNTVYLQMNSLKPEDTAVYYCAADVTLNPFTGWNTRSGPMYRYEYDYWGQGTQVTVSS
notes: His6-Myc-tagged monovalent VHH; also called family 22
On to B1, for which the binding result is reported as “binds”.

B2: MU1053 (VHH)
VHH: DVQLQESGGGLVQAGGSLRLSCTGSGRTFRNYPMAWFRQAPGKEREFVAGITWVGASTLYADFAKGRFTISRDNAKNTVYLQMNSLKPEDTAVYSCAAGRGIVAGRIPAEYADWGQGTQVTVSS
notes: also called L-15.3; I-15.3a
Consider B2, for which the “EC50 (read off the curve)” value was approximately 0.1 nM.

B3: MU737 (VHH)
VHH: DVQLQASGGGLVQAGGSLRLSCAGSGRSFSSYAMGWFRQAPGKAREIVATITRSGGSTNYAVPVKGRFTISRDNAKNTVYLQMSSLKPEDTAVYYCAADRFAVASGTHDLDYWGQGTQVTVSS
notes: His6-Myc-tagged monovalent VHH; also called s-14.1c; family 9
As to B3, the binding result was “binds”.
